In publication PMC4894546 (Nature structural & molecular biology, 2016):

T1: NEIL2 (Homo sapiens, UniProt Q969S2 1-332)
T1 sequence: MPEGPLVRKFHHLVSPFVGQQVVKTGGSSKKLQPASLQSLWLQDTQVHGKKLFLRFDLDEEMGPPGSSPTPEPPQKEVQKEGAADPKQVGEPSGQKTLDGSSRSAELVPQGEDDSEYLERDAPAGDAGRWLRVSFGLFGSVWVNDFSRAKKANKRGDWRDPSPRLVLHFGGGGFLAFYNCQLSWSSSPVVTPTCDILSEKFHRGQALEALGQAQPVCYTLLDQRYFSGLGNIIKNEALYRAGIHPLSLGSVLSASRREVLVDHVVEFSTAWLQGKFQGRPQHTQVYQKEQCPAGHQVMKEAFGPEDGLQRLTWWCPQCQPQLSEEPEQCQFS


Legend:
NEIL1 [1] = target: T2, NEIL1 (Homo sapiens, UniProt Q96FI4 1-390); test: EMSA
T2 sequence (Q96FI4 whole entry): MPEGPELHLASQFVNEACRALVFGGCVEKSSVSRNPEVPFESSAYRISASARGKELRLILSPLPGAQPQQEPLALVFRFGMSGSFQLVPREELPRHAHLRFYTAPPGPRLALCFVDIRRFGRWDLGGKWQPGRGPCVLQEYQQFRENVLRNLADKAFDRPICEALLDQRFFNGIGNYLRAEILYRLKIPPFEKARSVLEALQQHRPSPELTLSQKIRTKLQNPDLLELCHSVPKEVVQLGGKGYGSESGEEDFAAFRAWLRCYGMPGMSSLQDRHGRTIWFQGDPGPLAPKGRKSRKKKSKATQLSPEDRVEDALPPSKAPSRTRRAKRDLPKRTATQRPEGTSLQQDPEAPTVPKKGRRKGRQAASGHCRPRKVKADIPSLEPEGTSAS

NEIL2 [2] = target: T1, NEIL2; test: EMSA
TDG = TDG (Homo sapiens, UniProt Q13569 1-410); test: EMSA
TDG, sequence (Q13569 whole entry): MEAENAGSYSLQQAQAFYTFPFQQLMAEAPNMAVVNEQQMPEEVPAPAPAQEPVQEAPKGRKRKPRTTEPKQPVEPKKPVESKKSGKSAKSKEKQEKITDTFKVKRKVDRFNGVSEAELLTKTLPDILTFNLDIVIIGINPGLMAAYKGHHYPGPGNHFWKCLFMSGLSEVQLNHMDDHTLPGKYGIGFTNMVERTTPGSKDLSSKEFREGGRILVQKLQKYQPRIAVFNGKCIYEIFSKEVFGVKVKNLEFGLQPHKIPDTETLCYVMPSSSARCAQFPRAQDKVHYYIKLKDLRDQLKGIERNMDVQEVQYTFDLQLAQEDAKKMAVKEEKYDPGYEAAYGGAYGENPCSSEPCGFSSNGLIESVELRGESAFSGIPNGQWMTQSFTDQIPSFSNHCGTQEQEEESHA

NEIL1 [3] = target: T2, NEIL1; test: EMSA; remark: listed apart in the source
NEIL2 [4] = target: T1, NEIL2; test: EMSA; remark: listed apart in the source
[5] = target: human thymine DNA glycosylase (TDG), recombinant (human, UniProt Q13569 1-410); test: MST
human thymine DNA glycosylase (TDG), recombinant, sequence (Q13569 whole entry): as above

binding result [5]	Binder	binding signal (NEIL1 [1])	Kd (NEIL2 [2]) [nM]	binding result (TDG)	binding result (NEIL1 [3])	binding result (NEIL2 [4])
	20mer_dC duplex (unmodified) (dsDNA) DNA 1: CGCTAGGATCCGGCCCCGCC DNA 2: GGCGGGGCCGGATCCTAGCG	3 fold lower affinity than AP site duplex	27			
	20mer_5caC duplex (5caC:G) (dsDNA, 5-carboxylcytosine at position 11 of strand 1 (hemi-modified)) DNA 1: CGCTAGGATCCGGCCCCGCC DNA 2: GGCGGGGCCGGATCCTAGCG			binds	binds	binds
	20mer_5fC duplex (5fC:G) (dsDNA, 5-formylcytosine at position 11 of strand 1 (hemi-modified)) DNA 1: CGCTAGGATCCGGCCCCGCC DNA 2: GGCGGGGCCGGATCCTAGCG			binds	binds	binds
binds	human NEIL2 DNA glycosylase, recombinant (enzyme, UniProt Q969S2 1-332, looked up) MPEGPLVRKFHHLVSPFVGQQVVKTGGSSKKLQPASLQSLWLQDTQVHGKKLFLRFDLDEEMGPPGSSPTPEPPQKEVQKEGAADPKQVGEPSGQKTLDGSSRSAELVPQGEDDSEYLERDAPAGDAGRWLRVSFGLFGSVWVNDFSRAKKANKRGDWRDPSPRLVLHFGGGGFLAFYNCQLSWSSSPVVTPTCDILSEKFHRGQALEALGQAQPVCYTLLDQRYFSGLGNIIKNEALYRAGIHPLSLGSVLSASRREVLVDHVVEFSTAWLQGKFQGRPQHTQVYQKEQCPAGHQVMKEAFGPEDGLQRLTWWCPQCQPQLSEEPEQCQFS					
